Experimental data reported in US20110318827A1 (COMMISSARIAT A L ENERGIE ATOMIQUE ET AUX ENERGIES …, published 2011).
Bridge positions count the residues as written; N and C are the ends. Square brackets hold non-standard residues; d marks the D form. Ends that are not written are not given here.

B1: HTGRRRGG-RC-121 (peptide)
peptide: TGRRRGGFCYWKVCT
HELM: PEPTIDE1{T.G.R.R.R.G.G.[dF].C.Y.[dW].K.V.C.T.[am]}$PEPTIDE1,PEPTIDE1,9:R3-14:R3$$$V2.0
SMILES: CC(C)[C@@H]1NC(=O)[C@H](CCCCN)NC(=O)[C@@H](Cc2c[nH]c3ccccc23)NC(=O)[C@H](Cc2ccc(O)cc2)NC(=O)[C@@H](NC(=O)[C@@H](Cc2ccccc2)NC(=O)CNC(=O)CNC(=O)[C@H](CCCNC(=N)N)NC(=O)[C@H](CCCNC(=N)N)NC(=O)[C@H](CCCNC(=N)N)NC(=O)CNC(=O)[C@@H](N)[C@@H](C)O)CSSC[C@@H](C(=O)N[C@H](C(N)=O)[C@@H](C)O)NC1=O
notes: not complexed with Tc
B2: TcO[HTGRRRGG-RC-121] (peptide)
peptide: TGRRRGGFCYWKVCT
modifications: [TcO]3+ core chelated by the N-terminal HTGRRR tag; free N-terminus; the RC-121 part carries D-Phe, D-Trp, a C-terminal amide and the preserved disulfide bridge
B3: RC-121 (peptide)
peptide: [dF]CY[dW]KVCT-NH2
modifications: disulfide 2-7
notes: Cyclic octapeptide somatostatin analog, made by solid phase synthesis

Assays:
[1] = target: T1, somatostatin receptor SST-2 (CHO-SST-2 (mb)) (Homo sapiens (Human), UniProt P30874 1-369); assay: radioligand competition binding, CHO-SST-2 (mb)
T1 construct: Printed as 'CHO-SST-2 (mb)'; also called SST-2 receptor
T1 sequence (P30874 whole entry, form in doubt): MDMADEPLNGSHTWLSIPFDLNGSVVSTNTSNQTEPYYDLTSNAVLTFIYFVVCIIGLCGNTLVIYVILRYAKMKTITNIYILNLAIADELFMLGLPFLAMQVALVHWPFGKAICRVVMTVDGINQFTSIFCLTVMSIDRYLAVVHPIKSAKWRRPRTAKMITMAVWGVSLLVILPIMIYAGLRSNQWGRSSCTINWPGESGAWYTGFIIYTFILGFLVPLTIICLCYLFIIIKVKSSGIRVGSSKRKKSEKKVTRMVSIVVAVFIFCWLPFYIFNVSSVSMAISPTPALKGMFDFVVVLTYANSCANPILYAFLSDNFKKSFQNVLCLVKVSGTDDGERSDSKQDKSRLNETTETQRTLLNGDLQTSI

[2] = target: T2, Somatostatin receptor subtype 2 (SST-2) on rat pancreatic carcinoma AR4-2J cells (rat, UniProt P30680 1-369); assay: competition with [125I]-[Tyr1]-somatostatin on AR4-2J cell suspension, filtration, Cheng-Prusoff
T2 construct: whole, on cells; Whole-cell suspension; the cells express predominantly, not only, SST-2; also called AR2-2J cells
T2 sequence (P30680 whole entry): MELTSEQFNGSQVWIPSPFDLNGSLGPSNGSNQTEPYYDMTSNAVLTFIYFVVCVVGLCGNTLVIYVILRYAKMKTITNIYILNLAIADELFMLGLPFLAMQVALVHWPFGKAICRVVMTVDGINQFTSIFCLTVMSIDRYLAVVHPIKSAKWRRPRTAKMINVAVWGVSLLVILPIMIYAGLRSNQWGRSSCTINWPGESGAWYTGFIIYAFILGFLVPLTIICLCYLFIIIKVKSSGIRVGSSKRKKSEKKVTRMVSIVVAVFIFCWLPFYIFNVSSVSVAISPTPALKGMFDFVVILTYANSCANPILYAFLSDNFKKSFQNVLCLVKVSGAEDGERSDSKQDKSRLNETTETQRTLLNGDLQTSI
Method: (§1) The cells were grown in tissue culture dishes (Falcon) which were incubated at 37° C. in an atmosphere of 5% CO₂ and 95% humidified air in DMEM medium with 4.5 g/l glucose supplemented with 1% L-glutamine, 20% foetal calf serum, 1% penicillin/streptomycin and amphotericin B (1 μg/mL). Subculturing was performed with a trypsin/EDTA (0.05%/0.02% w/v) solution. All products were purchased from Sigma (Saint-Quentin Fallavier; France). At 100% confluence, the medium was removed and the cells were harvested using Versen buffer (PBS+5 mM EDTA), washed with ice-cold phosphate buffer and finally centrifuged at 1000 g for 7 min (4° C.). The pellet was suspended in ice-cold buffer (10 mM MgCl₂, 0.25% BSA, 50 mM HEPES pH7.5, 1% protease inhibitor cocktail (Sigma) and cells suspension was stored in ice before binding experiments.
(§2) All binding experiments for AR4-2J cells were done at 37° C. in 10 mM MgCl₂, 0.25% BSA, 50 mM HEPES pH7.5, 1% protease inhibitor cocktail (Sigma). […] Non-specific binding was determined in the presence of 5 μM somatostatin-28. Incubation was terminated by addition of ice-cold washing buffer (Tris 10 mM pH7.2) and rapid filtration over Whatman GF/C glass fiber filters pre-soaked in 0.5% polyethylenimine. The filters activity was measured in a Cobra gamma counter. Each experiment has been performed in duplicates at least two times.

[3] = target: somatostatin receptor SST-3 (CHO-SST-3 (mb)) (Homo sapiens (Human), UniProt P32745 1-418); assay: radioligand competition binding, CHO-SST-3 (mb)
Sequence of somatostatin receptor SST-3 (CHO-SST-3 (mb)) (P32745 whole entry, form in doubt): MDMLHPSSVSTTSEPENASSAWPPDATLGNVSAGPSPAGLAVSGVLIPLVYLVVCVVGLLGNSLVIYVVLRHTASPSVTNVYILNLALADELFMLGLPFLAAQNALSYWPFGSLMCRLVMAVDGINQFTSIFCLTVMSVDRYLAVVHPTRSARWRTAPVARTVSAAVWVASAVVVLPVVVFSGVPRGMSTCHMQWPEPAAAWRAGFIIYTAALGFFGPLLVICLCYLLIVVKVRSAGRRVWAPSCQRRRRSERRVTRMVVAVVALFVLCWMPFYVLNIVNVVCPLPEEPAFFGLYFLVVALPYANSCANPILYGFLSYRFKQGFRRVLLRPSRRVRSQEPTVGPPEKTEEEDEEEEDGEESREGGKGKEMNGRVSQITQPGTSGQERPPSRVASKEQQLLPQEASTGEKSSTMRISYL

[4] = target: somatostatin receptor SST-1 (CHO-SST-1 (mb)) (Homo sapiens (Human), UniProt P30872 1-391); assay: radioligand competition binding, CHO-SST-1 (mb)
Sequence of somatostatin receptor SST-1 (CHO-SST-1 (mb)) (P30872 whole entry, form in doubt): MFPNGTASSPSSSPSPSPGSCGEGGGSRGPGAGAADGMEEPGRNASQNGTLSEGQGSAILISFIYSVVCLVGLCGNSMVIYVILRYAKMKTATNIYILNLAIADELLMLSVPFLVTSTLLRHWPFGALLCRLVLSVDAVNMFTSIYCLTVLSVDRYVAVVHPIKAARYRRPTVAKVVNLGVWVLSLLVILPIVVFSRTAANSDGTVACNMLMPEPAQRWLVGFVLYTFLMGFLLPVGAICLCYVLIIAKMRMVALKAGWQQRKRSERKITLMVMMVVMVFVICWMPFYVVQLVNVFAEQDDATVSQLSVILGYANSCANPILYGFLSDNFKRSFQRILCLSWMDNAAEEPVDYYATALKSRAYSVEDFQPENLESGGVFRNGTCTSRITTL

[5] = target: T2, Somatostatin receptor subtype 2 (SST-2) …; assay: competition with [125I]-[Tyr1]-somatostatin on AR4-2J cell suspension
Method: as §1, §2

[6] = target: somatostatin receptor SST-5 (CHO-SST-5 (mb)) (Homo sapiens (Human), UniProt P35346 1-364); assay: radioligand competition binding, CHO-SST-5 (mb)
Sequence of somatostatin receptor SST-5 (CHO-SST-5 (mb)) (P35346 whole entry, form in doubt): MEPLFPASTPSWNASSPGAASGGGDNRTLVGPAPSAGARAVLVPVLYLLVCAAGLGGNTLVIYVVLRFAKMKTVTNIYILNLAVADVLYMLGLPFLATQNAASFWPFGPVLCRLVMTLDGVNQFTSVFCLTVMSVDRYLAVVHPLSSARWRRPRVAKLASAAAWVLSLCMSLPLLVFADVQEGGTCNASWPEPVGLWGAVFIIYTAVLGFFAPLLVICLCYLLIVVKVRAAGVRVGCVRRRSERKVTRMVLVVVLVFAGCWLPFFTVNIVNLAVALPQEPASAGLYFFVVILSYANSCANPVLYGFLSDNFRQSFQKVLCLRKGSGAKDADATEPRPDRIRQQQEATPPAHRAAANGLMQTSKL

Binder	Ki [1] [nM]	Ki [2] [nM]	Ki [3] [nM]	Ki [4] [nM]	Kd [5] [nM]	Ki [6] [nM]
B1	0.02	0.035				
B2	0.02	0.066	10	58	0.06	30
B3		0.3				
